From article PMC4499140 (Nucleic Acids Research, 2015)

Key:
[1] = target: Rv1222 G133C (Fe-BABE);E. coli RNAP-σ70 holoenzyme (Mycobacterium tuberculosis …, UniProt L0T905;P0A7Z4;P0A8V2;P0A8T7;P0A800;P00579 1-154;1-329;1-1342;1-1407;2-91;1-613, C70A;C73A;C109G;G133C|); test: Fe-BABE footprinting
[2] = target: Mycobacterium tuberculosis RNA polymerase core (Mycobacterium tuberculosis, UniProt P9WGZ1;P9WGY9;P9WGY7); test: fluorescence polarisation

| Binder | binding result [1] | Kd [2] |
| --- | --- | --- |
| lacCONS15 promoter DNA (dsDNA) DNA 1: CACCCCAGGCTTGACACTTTATGCTTCGGCTCGTATAATGTGTGGAATTGTGAGGAGAGGCGGATAACAATTTCACACAGG DNA 2: CCTGTGTGAAATTGTTATCCGCCTCTCCTCACAATTCCACACATTATACGAGCCGAAGCATAAAGTGTCAAGCCTGGGGTG | binds | – |
| Rv1222ΔC, TMR labelled (domain or fragment, TMR label) MADPGSVGHVFRRAFSWLPAQFASQSDAPVGAPRQFRSTEHLSIEAIAAFVDGELRMNAHLRAAHHLSLCAQCAAEVDDQSRARAALRDSHPIRIPSTLLGLLSEIPRCPPEGPSKGSSGGSSQGPPDGAAAGFGDRFADGDGG | – | 72 ± 26 nM |
